According to patent publication US20250064929A1 (UPSTREAM BIO, published 2025):

Legend:
[1] = molecular target: T1, human TSLP receptor (TSLP-R) (human, UniProt Q9HC73 23-371); experiment: cell-based or functional assay
T1 sequence (looked up): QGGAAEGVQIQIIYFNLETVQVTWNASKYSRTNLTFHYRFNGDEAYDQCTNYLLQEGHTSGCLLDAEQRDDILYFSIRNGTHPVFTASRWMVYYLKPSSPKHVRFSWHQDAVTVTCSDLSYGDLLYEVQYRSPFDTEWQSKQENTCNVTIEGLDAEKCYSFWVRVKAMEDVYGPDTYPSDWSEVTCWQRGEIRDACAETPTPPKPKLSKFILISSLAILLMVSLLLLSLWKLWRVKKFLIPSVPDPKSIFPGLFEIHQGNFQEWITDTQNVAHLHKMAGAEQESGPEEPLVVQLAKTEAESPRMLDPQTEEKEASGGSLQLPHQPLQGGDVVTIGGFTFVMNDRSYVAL

[2] = molecular target: T1, human TSLP receptor (TSLP-R); experiment: cell-based or functional assay; remark: listed apart in the source

IC50 (ng/mL), cell proliferation of Ba/F3 cells transfected with human TSLP-R/IL-7Rα [1]: 90.7 ng/mL
IC50 (ng/mL), CCL17 production in dendritic cells [2]: 16.1 ng/mL
B1: TRAB-1 antibody (anti-TSLP-R antibody) (antibody, human IgG1, kappa, V domains shown)
VH: EVQLLESGGGLVQPGGSLRLSCAASGFTFRSSAMHWVRQAPGKGLKWVSSVSGSGAGTYYADSVKGRFTISRDNPKNTLYLQMNSLRAEDTAVYYCVKEGGSRGFDYWGQGTLVTVSS
VL: DIQMTQSPSSLSASVGDRVTITCRASQDISNYLAWFQQKPGKAPKSLIYTASSLQSGVPSKFSGSGSGTDFTLTISSLQPEDFATYYCQQYNLYPPTFGQGTKVEIKR
